# From US20220273720A1
# Biological target: CD3 on non-edited CD3+ T cells of a human donor (human) (UniProt P07766)
# Experiment: cell-based or functional assay
# CD3 on non-edited CD3+ T cells of a human donor (human), sequence (P07766 23-207, chain 1 of 3): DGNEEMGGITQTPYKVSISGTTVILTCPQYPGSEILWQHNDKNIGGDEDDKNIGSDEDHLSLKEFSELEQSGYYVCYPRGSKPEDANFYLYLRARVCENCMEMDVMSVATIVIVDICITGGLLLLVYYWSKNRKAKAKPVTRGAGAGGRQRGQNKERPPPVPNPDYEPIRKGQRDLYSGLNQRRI
# CD3 on non-edited CD3+ T cells of a human donor (human), sequence (P09693 23-182, chain 2 of 3, further chain): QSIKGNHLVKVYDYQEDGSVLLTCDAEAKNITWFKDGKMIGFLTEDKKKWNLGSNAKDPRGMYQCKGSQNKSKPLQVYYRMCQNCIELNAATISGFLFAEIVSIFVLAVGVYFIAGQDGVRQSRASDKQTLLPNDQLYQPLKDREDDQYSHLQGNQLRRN
# CD3 on non-edited CD3+ T cells of a human donor (human), sequence (P04234 22-171, chain 3 of 3, further chain): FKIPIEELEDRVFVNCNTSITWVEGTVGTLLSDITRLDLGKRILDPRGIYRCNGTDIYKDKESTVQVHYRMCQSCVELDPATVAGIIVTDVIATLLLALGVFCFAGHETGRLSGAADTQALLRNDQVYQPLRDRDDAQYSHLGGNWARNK
substance,measurement,value
foralumab biosimilar (Creative Biolabs) (antibody),"percent killing in a complement-dependent cytotoxicity (CDC) assay on non-edited CD3+ T cells, 24 h, 30% human serum, antibody at 30-4000 ng/ml",65%
